Laboratory results as given in patent US10941200B2, “TREM2 cleavage modulators and uses thereof” (Deutsches Zentrum Für Neurodegenerative Erkrankungen EV, priority 2016, dated 2021).
“Also recorded” adds a separate entry of the source.

Assays:
human TREM2 [1] = biological target: T1, human TREM2 (Homo sapiens, UniProt Q9NZC2); assay: sTREM2 ELISA of conditioned media from HEK293 Flp-In cells stably overexpressing wt TREM2 (ectodomain shedding); format: cell-based; conditions: for sTREM2 levels (ELISA), result in words: antibody 50 μg/mL, 24 hrs, FIG. 7B
T1 construct: HEK293 Flp-In cells either expressing human full-length TREM2 or empty vector; expressed in transfected cells
T1 sequence (Q9NZC2 19-230): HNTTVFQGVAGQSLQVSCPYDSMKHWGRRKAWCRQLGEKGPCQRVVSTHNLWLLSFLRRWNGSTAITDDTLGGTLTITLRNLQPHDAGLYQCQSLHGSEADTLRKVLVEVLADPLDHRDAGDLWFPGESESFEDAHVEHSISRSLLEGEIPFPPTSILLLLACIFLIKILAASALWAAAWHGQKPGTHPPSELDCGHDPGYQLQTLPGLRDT
Protocol: (§1) 1*10^6-1.5*10^6 cells were seeded in the 6-well format. 24 hours later fresh medium was added to the cells. Antibody clones as generated by Dr. Feederle (Helmholtz Center Munich, Core Facility Monoclonal Antibody Development) were added simultaneously, i.e. for overnight treatment (about 24 hrs), at a final concentration of 50 μg/mL. On the next day, conditioned media and cells were collected and processed as described under “Preparation of conditioned media, cell lysates, and immunoblotting”.
(§2) ADAM10 inhibitor G1254023X (5 μM final concentration) and a control monoclonal antibody, which is specific for the C terminus of human TREM2, were used as positive and negative controls, respectively.
For quantitation of levels of sTREM2 in cell culture supernatants, an ELISA for human sTREM2 was established using the Meso Scale Discovery SECTOR Imager 2400. Streptavidin-coated 96-well plates were blocked overnight at 4° C. in 0.5% bovine serum albumin (BSA) and 0.05% Tween 20 in PBS (pH 7.4) (blocking buffer). For detection of human sTREM2, plates were shaken for 1 hour at room temperature with biotinylated polyclonal goat anti-human TREM2 capture antibody (0.25 mg/ml; R&D Systems) diluted in blocking buffer. Plates were washed subsequently four times with 0.05% Tween 20 in PBS (washing buffer) and incubated for 2 hours at room temperature with samples diluted 1:4 in 0.25% BSA and 0.05% Tween 20 in PBS (pH 7.4) (assay buffer) supplemented with protease inhibitors (Sigma). Recombinant human TREM2 protein (Holzel Diagnostika) was diluted in assay buffer in a two-fold serial dilution and used for the standard curve (concentration range, 4000 to […]). Plates were washed three times for 5 min with washing buffer before incubation for 1 hour at room temperature with mouse monoclonal anti-TREM2 antibody (1 mg/ml; Santa Cruz Biotechnology; B-3) diluted in blocking buffer. After three additional washing steps, plates were incubated with a SULFO-TAG-labeled anti-mouse secondary antibody (1:1000; Meso Scale Discovery) and incubated for 1 hour in the dark. Last, plates were washed three times with washing buffer followed by two washing steps in PBS and developed by adding Meso Scale Discovery Read buffer. The light emission at 620 nm after electrochemical stimulation was measured using the Meso Scale Discovery SECTOR Imager 2400 reader. To quantify the levels of sTREM2 secreted from HEK293 Flp-In cells, conditioned media from biological replicates were analyzed in duplicates. The sTREM2 standard curves were generated using the MasterPlex ReaderFit software (MiraiBio Group, Hitachi Solutions America) through a five-parameter logistic fit. Levels of sTREM2 were subsequently normalized to levels of immature TREM2 as quantified from Western Blots.

human TREM2 [2] = biological target: T1, human TREM2; conditions: Kleinberger et al, 2014; cited from earlier work
human TREM2 [3] = assay: MALDI-TOF mass spectrometry analysis of TREM2 ectodomain cleavage (C-terminal fragment) in HEK293 cells; format: cell-based; conditions: C-terminally FLAG-tagged TREM2 in HEK293 cells, FIG. 1B
Protocol: HEK293 Flp-In cells stably expressing WT and H157Y TREM2 were harvested in PBS. Cell pellets were frozen at −20° C. until use. Cells were lysed in lysis buffer (4% DDM, 0.1% N-octylglucoside, 10 mM Tris-HCl, pH 8.0, 5 mM EDTA, and 140 mM NaCl) containing protease inhibitor mix (Sigma-Aldrich) for 20 min on ice. Following a clarifying spin at 13,000 g for 20 min, supernatants were subjected to a second clarifying spin by centrifugation at 100,000 g for 1 h, and incubated with anti-FLAG M2-agarose (Sigma-Aldrich) overnight by rotation at 4° C. Beads were washed four times with IP/MS buffer (0.1% N-octylglucoside, 10 mM Tris-HCl, pH 8.0, 5 mM EDTA, and 140 mM NaCl) and two times with water. Beads were stored at −20° C. until IP/MS analysis.
IP/MS analysis was performed using Voyager DE STR (Applied Biosystems) as described previously). Immunoprecipitated peptides were eluted with TFA/CH3CN/water (1:20:20) saturated with α-cyano-4-hydroxy cinnamic acid. The dissolved samples were dried on a stainless plate and subjected to MALDI-TOF MS analysis.

human TREM2 [4] = biological target: T1, human TREM2; assay: Immunoblotting of mature TREM2 in membrane fractions of HEK cells stably overexpressing wt TREM2; format: cell-based; conditions: for levels of mature TREM2 in the membrane fraction (quantified immunoblots), result in words: normalized to immature TREM2, FIG. 7C
Protocol: (§3) HEK293 Flp-In cells stably overexpressing TREM2 or TREM2-DAP12 cDNA constructs were seeded at a density of 1.5×10^5/cm^2 and medium changed 48 h post seeding. Conditioned medium was collected after 18-20 h, immediately cooled down on ice, centrifuged at 13,000 rpm for 20 min at 4° C. and supernatants frozen at −20° C. until analysis. Supernatants were directly subjected to standard 15% SDS-PAGE. To prepare membrane fractions, cells were washed twice with ice-cold PBS, resuspended in ice-cold hypotonic buffer (0.01 M Tris, pH 7; 1 mM EDTA; 1 mM EGTA), freshly supplemented with protease inhibitor (Sigma) and incubated on ice for 30 min. After snap freezing in liquid
nitrogen and thawing, the disrupted cells were centrifuged at 13,000 rpm for 45 min at 4° C.
The resulting pellet was resuspended in STE lysis buffer (150 mM NaCl, 50 mM Tris-HCl,
pH 7.6, 2 mM EDTA, 1% Triton-X 100), incubated for 20 min on ice and clarified by centrifugation at 13,000 rpm for 30 min at 4° C. Protein concentrations were measured using the BCA method, equal amounts of protein were mixed with Laemmli sample buffer, supplemented with beta mercaptoethanol, separated by SDS-PAGE and transferred onto polyvinylidene difluoride membranes (Hybond P; Amersham Biosciences, Aylesbury, UK). Bound antibodies were visualized by corresponding HRP-conjugated secondary antibodies
(§4) using enhanced chemiluminescence technique (Pierce). Quantification of immunoblots was performed on a LAS-4000 image reader and analyzed using the Multi-Gauge V3.0 software (both Fujifilm Life Science).
as §1, §2

human TREM2 [5] = biological target: T1, human TREM2; assay: Anti-HA immunoblotting of soluble TREM2 (sTREM2) from conditioned media of HEK cells stably overexpressing wt TREM2; format: cell-based; conditions: antibody 50 μg/mL, 24 hrs; FIG. 7A top blot
Protocol: as §3, §4
1*10^6-1.5*10^6 cells were seeded in the 6-well format. 24 hours later fresh medium was added to the cells. Antibody clones as generated by Dr. Feederle (Helmholtz Center Munich, Core Facility Monoclonal Antibody Development) were added simultaneously, i.e. for overnight treatment (about 24 hrs), at a final concentration of 50 μg/mL. On the next day, conditioned media and cells were collected and processed as described under “Preparation of conditioned media, cell lysates, and immunoblotting”. […]

Molecule: CNC(=O)[C@@H](NC(=O)[C@H](CCCc1ccccc1)[C@H](C)N(O)C=O)C(C)(C)C [G1254023X]
- decrease in shedding (sTREM2 ELISA) (human TREM2 [1]; ADAM10 inhibitor 5 μM, about 24 hrs, positive control, normalized to immature TREM2): about 60%
- inhibition of TREM2 cleavage (literature) (human TREM2 [2]): strongly inhibit cleavage
- TREM2 C-terminal fragment cleavage peak in MALDI-TOF mass spectra upon ADAM inhibition (human TREM2 [3]; listed as GI): no identified peak; also recorded: did not show any peak
- levels of mature TREM2, result in words (human TREM2 [4]; ADAM10 inhibitor 5 μM, positive control): increased levels of mature TREM2

Molecule: CNC(=O)[C@H](Cc1c[nH]c2ccccc12)NC(=O)[C@@H](CC(=O)NO)CC(C)C [GM]
- TREM2 C-terminal fragment cleavage peak in MALDI-TOF mass spectra upon ADAM inhibition (human TREM2 [3]): no identified peak; also recorded: did not show any peak

B1: clone 14D8: rat monoclonal antibody against TREM2 cleavage site peptide; heavy chain variable SEQ ID NO: 24, light chain variable SEQ ID NO: 34 (antibody, V domains shown)
VH: EVKLLESGGGLVQPGGSMRLSCAASGFTFTDFYMNWIRQPAGKAPEWLGLIRNKANGYTTVYNPSVKGRFTISRDNTQNMLYLQMNTLRGEDTATYYCARIGINNGGSLDYWGQGVMVTVSS
VL: DILINQSPASLTVSTGEKVTMSCRSSQSLLYSEKNQDYLAWYQQKPGQFPKLLIYGASYRHTGVPDRFTGSGSGTDFTLTISSVQAEDLADYYCEQTYSYPYTFGAGTKLELK
modifications: Clone 14D8 variable region of the heavy chain; Clone 14D8 variable region of the light chain
- sTREM2 levels (ELISA), result in words (human TREM2 [1]; normalized to immature TREM2): decreases in sTREM2 levels comparable to the ADAM10 inhibitor G1254023X; also recorded: decreased levels of sTREM2
- activity to inhibit TREM2 cleavage (summary statement) (human TREM2 [1]; ranking among the antibody clones of the Examples): very high activity to inhibit TREM2 cleavage
- increase in levels of mature TREM2 in the membrane fraction (immunoblot), result in words (human TREM2 [4]; antibody 50 μg/mL, 24 hrs, FIG. 7A bottom blot): comparable to if not higher than the increase as seen with the ADAM10 inhibitor G1254023X
- levels of mature TREM2 in the membrane fraction (quantified immunoblots), result in words (human TREM2 [4]; antibody 50 μg/mL, 24 hrs): increases in levels of mature TREM2 comparable to or even higher than the ADAM10 inhibitor G1254023X; also recorded: increases in levels of mature TREM2 in the membrane fraction
- extent of ectodomain cleavage (sTREM2 immunoblot), result in words (human TREM2 [5]): strongly reduce the extent of ectodomain cleavage

B2: clone 8A11: rat monoclonal antibody against TREM2 cleavage site peptide; heavy chain variable SEQ ID NO: 26, light chain variable SEQ ID NO: 36 (antibody, V domains shown)
VH: EVKLLESGGGLVQPGGSMRLSCAASGFTFTDFYMNWIRQPAGKAPEWLGLIRNKTKGYTTEYNTSVKGRFTISRDNTQNMLYLQMNSLRPEDTATYYCARIGVNNGGSLDYWGQGVMVTVSS
VL: DILIIQSPASLTVSAGARVTMSCKSSQSLLYSENNQDYLAWYQQKPGQFPKLLIYGASNRHTGVPDRFTGSGSGTDFTLTISSVQAEDLADYYCEQTYSYPYTFGAGTKLELK
modifications: Clone 8A11 variable region of the heavy chain; Clone 8A11 variable region of the light chain
- levels of mature TREM2 in the membrane fraction (quantified immunoblots), result in words (human TREM2 [4]; antibody 50 μg/mL, 24 hrs): increased levels of TREM2 in the membrane fraction

B3: clone 10C3: rat monoclonal antibody against TREM2 cleavage site peptide; heavy chain variable SEQ ID NO: 28, light chain variable SEQ ID NO: 38 (antibody, V domains shown)
VH: EVKLLESGGGLVQPGGSMRLSCAASGFTFTDFYMNWIRQPAGETPEWLGLIRNKTKGYTTEYNPSVKGRFTISRDNTQNMLYLQMNSLRPEDTATYYCARIGTNNGGSLDYWGQGVMVTVSS
VL: DILIIQSPASLTVSAGARVTMSCKSSQSLLYSENNQDYLAWYQQKPGQFPKLLIYGASNRHTGVPDRFTGSGSGTDFTLTISSVQAEDLADYYCEQTYSYPYTFGAGTKLELK
modifications: Clone 10C3 variable region of the heavy chain; Clone 10C3 variable region of the light chain
- sTREM2 levels (ELISA), result in words (human TREM2 [1]; normalized to immature TREM2): slight trend toward reduced sTREM2 levels
- levels of mature TREM2 in the membrane fraction (quantified immunoblots), result in words (human TREM2 [4]; antibody 50 μg/mL, 24 hrs): increased levels of TREM2 in the membrane fraction

B4: clone 7A12: rat monoclonal antibody against TREM2 cleavage site peptide; heavy chain variable SEQ ID NO: 25, light chain variable SEQ ID NO: 35 (antibody, V domains shown)
VH: EVKLLESGGGLVQPGGSMRLSCAASGFTFTDFYMNWIRQPAGKAPEWLGLIRNKANGYTTQYNPSVKGRFTISRDNTQNMLYLQMNTLRGEDTATYYCARIGINNGGSLDYWGQGVMVTVSS
VL: DILINQSPASLTVSAGEKVTMSCKSSQSLLYSEKNQDYLAWYQQKPGQSPKLLMYGASYRHTGVPDRFTGSGSGTDFTLTISSVQAEDLADYYCEQTYSYPYTFGAGTKLELK
modifications: Clone 7A12 variable region of the heavy chain; Clone 7A12 variable region of the light chain
- sTREM2 levels (ELISA), result in words (human TREM2 [1]; normalized to immature TREM2): slight trend toward reduced sTREM2 levels
- levels of mature TREM2 in the membrane fraction (quantified immunoblots), result in words (human TREM2 [4]; antibody 50 μg/mL, 24 hrs): increased levels of TREM2 in the membrane fraction
